In patent US20230235048A1 (PROTHENA BIOSCIENCES, published 2023):

T1: extracellular domain (ECD) of recombinant human Sortilin with a C-terminal HIS tag (ECD-huSortilin-HIS) (human, UniProt Q99523 78-755)
T1 construct: Bought (R&D Systems); also called human sortilin-ECD; not shown: C-terminal HIS tag
T1 sequence: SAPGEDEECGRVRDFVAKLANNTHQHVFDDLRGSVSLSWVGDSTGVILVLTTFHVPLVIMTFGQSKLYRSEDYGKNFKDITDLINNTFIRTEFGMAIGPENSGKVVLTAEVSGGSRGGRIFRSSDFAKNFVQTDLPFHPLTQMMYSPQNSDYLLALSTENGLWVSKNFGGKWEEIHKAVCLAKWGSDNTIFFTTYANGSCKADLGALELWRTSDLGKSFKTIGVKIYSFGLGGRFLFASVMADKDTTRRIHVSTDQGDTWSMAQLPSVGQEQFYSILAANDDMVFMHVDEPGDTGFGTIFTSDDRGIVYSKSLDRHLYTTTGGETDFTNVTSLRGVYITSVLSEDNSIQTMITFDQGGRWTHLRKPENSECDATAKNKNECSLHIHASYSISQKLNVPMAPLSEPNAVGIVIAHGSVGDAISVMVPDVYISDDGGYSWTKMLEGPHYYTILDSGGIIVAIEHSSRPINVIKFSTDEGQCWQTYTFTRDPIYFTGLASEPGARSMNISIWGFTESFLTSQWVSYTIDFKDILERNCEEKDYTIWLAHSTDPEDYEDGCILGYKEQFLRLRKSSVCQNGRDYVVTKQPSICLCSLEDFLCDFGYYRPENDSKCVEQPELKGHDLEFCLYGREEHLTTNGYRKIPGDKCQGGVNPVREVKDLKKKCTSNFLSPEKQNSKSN

T2: human sortilin on the cell surface (recombinant huSortilin on HEK 293 cells; endogenous on U251MG cells) (human, UniProt Q99523 78-831)
T2 construct: whole, on cells; also called huSortilin expressing HEK293 cells; cell surface huSortilin
T2 sequence (looked up): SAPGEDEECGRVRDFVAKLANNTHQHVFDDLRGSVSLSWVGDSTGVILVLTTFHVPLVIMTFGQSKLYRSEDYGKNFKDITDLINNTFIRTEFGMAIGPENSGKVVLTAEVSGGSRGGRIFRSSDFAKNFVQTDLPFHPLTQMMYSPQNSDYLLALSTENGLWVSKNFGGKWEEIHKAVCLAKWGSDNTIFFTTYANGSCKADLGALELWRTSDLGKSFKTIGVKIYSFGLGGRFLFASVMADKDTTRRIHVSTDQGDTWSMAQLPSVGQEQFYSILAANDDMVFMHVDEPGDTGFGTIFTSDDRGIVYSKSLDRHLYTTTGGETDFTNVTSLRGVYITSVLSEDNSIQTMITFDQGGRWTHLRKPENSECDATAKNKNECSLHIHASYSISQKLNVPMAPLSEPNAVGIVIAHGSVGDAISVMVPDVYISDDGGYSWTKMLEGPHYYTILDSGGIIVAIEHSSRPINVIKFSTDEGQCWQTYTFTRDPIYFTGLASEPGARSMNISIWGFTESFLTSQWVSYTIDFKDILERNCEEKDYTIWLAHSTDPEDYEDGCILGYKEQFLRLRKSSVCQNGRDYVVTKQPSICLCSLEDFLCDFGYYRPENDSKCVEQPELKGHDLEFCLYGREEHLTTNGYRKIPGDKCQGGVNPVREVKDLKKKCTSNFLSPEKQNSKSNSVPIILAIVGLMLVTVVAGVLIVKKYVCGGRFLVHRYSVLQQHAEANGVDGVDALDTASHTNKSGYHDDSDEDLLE

T3: sortilin array peptides with the consensus motif RTEFGMAIGP (human, not fully specified; array peptides cyclized via a thioether linkage between a C-terminal cysteine and a modified N-terminus)
T3 construct: Consensus motif of overlapping 7, 10 and 13 amino acid conformational microarray peptides
T3 peptide: RTEFGMAIGP


Experiments:
[1] = target: T1, extracellular domain (ECD) of …; assay: SPR (Biacore T200), mAb captured by anti-mouse antibody on CM5, Sortilin 0.1-300 nM as analyte, global 1:1 fit
Procedure: Analysis was performed using a Biacore T200 to compare the binding affinity of murine anti-huSortilin antibodies to recombinant human Sortilin. Anti-mouse antibody was immobilized on sensor chip CM5 (GE Healthcare Life Sciences) via amine coupling, and mouse antibodies (ligand) were captured to a level to ensure a maximum binding of analyte of 50 RU (approximately 100RU of ligand binding). Various concentrations of Sortilin (ranging from 0.1 nM to 300 nM) were passed over the captured ligand at […] in running buffer (HBS+0.05% P-20, 1 mg/mL BSA) for 180-300s association time and 300-900s dissociation time. Regeneration of the chip surface was accomplished by 2 short injections of 10 mM Glycine-HCl at pH 1.7. Data was blank subtracted to both a sensor not containing ligand and 0 nM analyte concentration. Analysis was performed using a global 1:1 fit with Biacore Insight Evaluation software (v2.0) with bulk refractive index set to zero RU.

[2] = target: T1, extracellular domain (ECD) of …; assay: ELISA, Ab binding to hSortilin-ECD
Procedure: Purified anti-huSortilin mAb binding to huSortilin was characterized by ELISA (ELISA protocol as in Example 1) using a 12 point titration of mAb concentration. mAbs were diluted 2-fold from a starting concentration of 67 nM and then added to ECD-huSortilin-HIS coated plates. Data was analyzed and EC₅₀ (nM) was calculated using graphed Prism. Commercially available goat anti-huSortilin (R&D Biosystems) was used as a positive control. Results are depicted in FIG. 8.

[3] = target: T1, extracellular domain (ECD) of …; assay: blocking ELISA, coated ECD-huSortilin-HIS; blocked ligand huPGRN-Biotin
[4] = target: T2, human sortilin on the cell surface …; assay: cell-based blocking titration (flow cytometry), huSortilin HEK293 cells; blocked ligand 30 nM huPGRN-Biotin
Procedure: Cells were cultured using standard methods. […] Cells were then washed twice in PBS+2% FBS and incubated for 30 minutes on ice with 50 uL per well 1:200 Steptavidin-APC (BD biosciences) in PBS+2% FBS. Cells were then washed as above and resuspended in 100 uL PBS+2% FBS. Data was acquired using the BD LSR II and analyzed using FlowJo software version 10.6 and Microsoft excel.
The cell-based blocking assay was repeated with the top 12 blocking mAbs using a dose titration from 67 nM to 0.4 nM. Blocking assay was carried out as above. Data was analyzed using FlowJo software version 10.6. and GraphPad Prism software.

[5] = target: T1, extracellular domain (ECD) of …; assay: blocking ELISA, coated ECD-huSortilin-HIS, purified mAb; blocked ligand huPGRN-Biotin
[6] = target: T3, sortilin array peptides with the …; assay: PEPperMAP conformational (cyclized) peptide microarray, mAb 10-100 ug/mL

| Kd [1] | EC50 [2] | % Blocking at 7.4nM mAb [3] | % Max blocking at 11nM mAb [4] | IC50 (read off the curve) [5] | binding result [6] | koff [1] | kon [1] | Binder |
| --- | --- | --- | --- | --- | --- | --- | --- | --- |
| 6.24 nM | 0.8 nM | 75% | 48% |  |  |  |  | mouse monoclonal antibody 11M14 (antibody, mouse IgG1, V domains shown, mouse IgG1, kappa; also called ms11M14) VH: EVQLVESGGDLVKPGGSLKLSCAASGFTFNIYGMSWVRQTPDKRLEWVATISSGGIYTYYPDILKGRFTISRDNAKNTLYLQMSSLKSEDTAMYYCARHPGGAMDYWGQGTSVTVSS VL: DIQMTQSPASLSVSVGETVTITCRVSENIYSNLAWYQQKQGKSPHLLVYAATNLADGVPSRFSGSGSGTQYSLKINSLQSEDFGSYYCQHFWGTPPWTFGGGTKLEIK |
| 2.81 nM | 0.7 nM | 76% | 41% |  |  |  |  | mouse monoclonal antibody 2F18 (antibody, mouse IgG1, V domains shown, mouse IgG1, kappa) VH: EVQLVESGGDLVKPGGSLKLSCAASGFTFNIYGMSWVRQTPDKRLEWVATISTGGIYTYYPDSVKGRFTISRDNAKNTLYLQMSSLKSEDTAMYYCARHPVGALDYWGQGTSVTVSS VL: DIQVTQSPASLSVSVGETVTITCRASENIYSNLAWYQQKQGKSPHLLVYTATTLADGVPSRFSGSGSGTQYSLKINSLQSEDFGSYYCQHFWGTPPWTFGGGTKLEIK |
| 2.21 nM | 0.8 nM | 67% | 40% |  |  |  |  | mouse monoclonal antibody 2P22 (antibody, mouse IgG2b, V domains shown, mouse IgG2b, kappa) VH: EVQLVESGGDLVKPGGSLKLSCAASGFTFSIYGMSWVRQTPDKKLEWVAAISSGGIYTYYPDSVKGRFTISRDNAKNTLYLQMSSLKSADTAMYYCTRNDYDWFAYWGQGTLVTVSA VL: DIQMTQSPSSLSASLGERVSLTCRASQDIGSSLNWLQQEPDGTIKRLIYATSSLDSGVPKRFSGSRSGSDYSLTISSLESEDFVDYYCLQYASSPYTFGGGTKLEIK |
| 1.59 nM | 1.1 nM | 76% | 54% |  |  |  |  | mouse monoclonal antibody 5E20 (antibody, mouse IgG1, V domains shown, mouse IgG1, kappa; also called ms5E20; ms5E20new) VH: EVQLVESGGDLVKPGGSLKLSCAAPGFTFSTYGMSWVRQTPDKRLEWVAIISSGGSYTYYSDTVKGRFTISRDNAKNTLYLQMSSLKSEDTAMYYCSRSSSHWYFDVWGTGTTVTVSS VL: DILMTQSPSSMSVSLGDTVSITCHASQGISSNIGWLQQKPGKSFKGLIYHGTNLKDGVPSRFSGSGSGADFSLTISSLESEDFADYFCVQYAQFPYTFGGGTKLEKR |
| 1.02 nM | 3.8 nM | 51% | 33% | ~5 nM |  |  |  | mouse monoclonal antibody 6B15 (antibody, mouse IgG1, V domains shown, mouse IgG1, kappa) VH: EVQLVESGGDLVKPGGSLKLSCAAPGFTFSTYGMSWVRQTPDKRLEWVAIISSGGSYTYYSDTVKGRFTISRDNAKNTLNLQMSSLKSEDTAMYFCSRSSSHWYFDVWGTGTTVTVSS VL: DILMTQFPSSMSVSLGDTVSITCHASQGISSNIGWLQQKPGKSFKGLIYHGTNLKDGVPSRFSGSGSGTDFSLTISSLESEDFADYYCVQYAQFPYTFGGGTKLEKR |
| 4.56 nM | 0.4 nM | 89% | 66% |  | binds |  |  | mouse monoclonal antibody 8H24 (antibody, mouse IgG2c, V domains shown, mouse IgG2c, kappa; also called mu8H24; m8H24) VH: QAYLQQSGTELVRPGASVKMSCKASGYTFTSYSMHWVKQTPRQGLEWIGAIYPGNDATSYNQKFKGKATLTVDKSSSTAYMQLSSLTSEDSAVYFCAREGYYGSSFEAWFASWGQGTLVTVSA VL: DVLMTQTPLSLPVSLGDQASISCRSSQSIVHSNGNTYLEWYLQKPGQSPKLLIYKVSNRFSGVPDRFSGSGSGTDFTLKISRVEAEDLGVYYCFQGSHVLPTFGGGTKLEIK |
| 2.29 nM | 2.7 nM | 27% | 0% |  |  | 0.000411 s⁻¹ | 179000 M⁻¹ s⁻¹ | mouse monoclonal antibody 5M13 (antibody, mouse IgG1, V domains shown, mouse IgG1, kappa) VH: DVQLQESGPGLVKPSQSLSLTCTVTGYSITSDYAWNWIRQFPGNKLEWMGYISSSGSTSYNPSLKSRISVTRDTSKNQFFLQLNFVTAEDTATYYCAFVTTTMDYWGQGTSVTVSS VL: DVVMTQTPLSLPVSLGDQASISCRSSQSLVHSNGNTYLHWYLQKPGQSPKLLIYTVSNRFSGVPDRFSGSGSGTDFTLKISRVEAEDLGVYFCSQSTHVPFTFGSGTKLEIK |
